# Experimental data published in the supplement of paper PMC10598134.
# ± gives the standard deviation.
# Assay: collision cross section of modified peptide (TIMS, N2, iRT-aligned); higher = larger / more extended gas-phase ion
# How it was run: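 Values are averages of 1–3 technical replicates of the most abundant feature for each charge state. Collision cross section was obtained from the Mason-Schamp equation after 1/K0 calibration with three reference ions and run-wise alignment to the median iRT peptide deviation. Synthetic peptide pools (iRT standard spiked 1:40) were separated on a 120-min nanoflow C18 gradient at 60 °C, analysed on a timsTOF Pro/HT (dda-PASEF, nitrogen, ~2.4 mbar) and identified with MaxQuant.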
# [1] = charge state: 2, modification: Butyryl
# [2] = charge state: 3, modification: Butyryl
# [3] = charge state: 2, modification: Crotonyl
# [4] = charge state: 3, modification: Crotonyl
# [5] = charge state: 3, modification: Dimethyl (K)
# [6] = charge state: 2, modification: Formyl
# [7] = charge state: 3, modification: Formyl
# [8] = charge state: 2, modification: Glutarylation
# [9] = charge state: 3, modification: Glutarylation
# [10] = charge state: 2, modification: GlyGly (K)
# [11] = charge state: 3, modification: GlyGly (K)
# [12] = charge state: 2, modification: Malonyl
# [13] = charge state: 2, modification: Methyl (K)
# [14] = charge state: 3, modification: Methyl (K)
# [15] = charge state: 2, modification: Propionyl
# [16] = charge state: 3, modification: Propionyl
# [17] = charge state: 2, modification: Succinyl
# [18] = charge state: 3, modification: Succinyl
# [19] = charge state: 2, modification: Trimethyl (K)
# [20] = charge state: 3, modification: Trimethyl (K)
# [21] = charge state: 2, modification: Citrullination (R)
# [22] = charge state: 3, modification: Methyl (R)
# [23] = charge state: 2, modification: HexNAc (ST)
sequence,measurement,setting,value
SGNLTEDDKHNNAK [_SGNLTEDDK(Butyryl)HNNAK_],collision cross section,[1],425.09 ± 0.55 Å²
same,collision cross section,[2],472.83 ± 2.7 Å²
SGNLTEDDKHNNAK [_SGNLTEDDK(Crotonyl)HNNAK_],collision cross section,[3],426.1 Å²
same,collision cross section,[4],469.87 ± 1.6 Å²
SGNLTEDDKHNNAK [_SGNLTEDDK(Dimethyl (K))HNNAK_],collision cross section,[5],479.84 ± 1.3 Å²
SGNLTEDDKHNNAK [_SGNLTEDDK(Formyl)HNNAK_],collision cross section,[6],415.1 ± 1.8 Å²
same,collision cross section,[7],466.8 ± 1.3 Å²
SGNLTEDDKHNNAK [_SGNLTEDDK(Gluratylation)HNNAK_],collision cross section,[8],428.34 ± 1.5 Å²
same,collision cross section,[9],486.64 ± 2.8 Å²
SGNLTEDDKHNNAK [_SGNLTEDDK(GlyGly (K))HNNAK_],collision cross section,[10],432.48 ± 1.6 Å²
same,collision cross section,[11],495.64 ± 0.34 Å²
SGNLTEDDKHNNAK [_SGNLTEDDK(Malonyl)HNNAK_],collision cross section,[12],417.21 ± 1.6 Å²
SGNLTEDDKHNNAK [_SGNLTEDDK(Methyl (K))HNNAK_],collision cross section,[13],417.49 ± 1.1 Å²
same,collision cross section,[14],487.35 ± 2.7 Å²
SGNLTEDDKHNNAK [_SGNLTEDDK(Propionyl)HNNAK_],collision cross section,[15],423.13 ± 0.36 Å²
same,collision cross section,[16],471.16 Å²
SGNLTEDDKHNNAK [_SGNLTEDDK(Succinyl)HNNAK_],collision cross section,[17],424.64 ± 1.1 Å²
same,collision cross section,[18],478.73 ± 2.5 Å²
SGNLTEDDKHNNAK [_SGNLTEDDK(Trimethyl (K))HNNAK_],collision cross section,[19],419.32 ± 0.75 Å²
same,collision cross section,[20],469.66 ± 1.5 Å²
SGNLTEDDKHNNAK [_SGNLTEDDK(hydroxyisobutyryl)HNNAK_],collision cross section,"charge state: 2, modification: hydroxyisobutyryl",427.86 ± 0.82 Å²
same,collision cross section,"charge state: 3, modification: hydroxyisobutyryl",488.54 ± 1.1 Å²
SGRGGNFGFGDSR [_SGR(Citrullination (R))GGNFGFGDSR_],collision cross section,[21],379.38 ± 0.54 Å²
SGRGGNFGFGDSR [_SGR(Methyl (R))GGNFGFGDSR_],collision cross section,[22],452.71 ± 3.1 Å²
SGYSSPGSPGTPGSR [_SGYSSPGSPGTPGS(HexNAc (ST))R_],collision cross section,[23],394.87 ± 0.13 Å²
SHLRHAIPSAER [_SHLR(Citrullination (R))HAIPSAER_],collision cross section,[21],388.58 ± 0.81 Å²
same,collision cross section,"charge state: 3, modification: Citrullination (R)",492.66 ± 4.6 Å²
SHLRHAIPSAER [_SHLR(Methyl (R))HAIPSAER_],collision cross section,"charge state: 2, modification: Methyl (R)",404.4 Å²
same,collision cross section,[22],477.29 ± 19 Å²
SISQSISGQK [_S(HexNAc (ST))ISQSISGQK_],collision cross section,[23],366.39 ± 0.12 Å²
SITHSTVGSKGEK [_SITHSTVGSK(Acetyl (K))GEK_],collision cross section,"charge state: 2, modification: Acetyl (K)",391.66 ± 1.8 Å²
same,collision cross section,"charge state: 3, modification: Acetyl (K)",440.5 ± 4 Å²
SITHSTVGSKGEK [_SITHSTVGSK(Butyryl)GEK_],collision cross section,[1],396.1 ± 0.79 Å²
same,collision cross section,[2],440.88 ± 2.8 Å²
SITHSTVGSKGEK [_SITHSTVGSK(Crotonyl)GEK_],collision cross section,[3],402.71 ± 8.6 Å²
same,collision cross section,[4],442.34 ± 1.6 Å²
SITHSTVGSKGEK [_SITHSTVGSK(Dimethyl (K))GEK_],collision cross section,"charge state: 2, modification: Dimethyl (K)",401.87 ± 2.2 Å²
same,collision cross section,[5],464.51 ± 2.1 Å²
SITHSTVGSKGEK [_SITHSTVGSK(Formyl)GEK_],collision cross section,[6],387.87 ± 1.4 Å²
same,collision cross section,[7],435.39 ± 3 Å²
SITHSTVGSKGEK [_SITHSTVGSK(Gluratylation)GEK_],collision cross section,[8],400.44 ± 2.1 Å²
same,collision cross section,[9],444.81 ± 2 Å²
SITHSTVGSKGEK [_SITHSTVGSK(GlyGly (K))GEK_],collision cross section,[10],404.23 ± 1.4 Å²
same,collision cross section,[11],469.84 ± 1.3 Å²
SITHSTVGSKGEK [_SITHSTVGSK(Malonyl)GEK_],collision cross section,[12],390.69 ± 2.2 Å²
same,collision cross section,"charge state: 3, modification: Malonyl",440.36 ± 2.7 Å²
SITHSTVGSKGEK [_SITHSTVGSK(Methyl (K))GEK_],collision cross section,[13],402.47 ± 1.2 Å²
same,collision cross section,[14],466.28 ± 2.9 Å²
SITHSTVGSKGEK [_SITHSTVGSK(Propionyl)GEK_],collision cross section,[15],395.17 ± 0.94 Å²
same,collision cross section,[16],443.25 ± 0.59 Å²
SITHSTVGSKGEK [_SITHSTVGSK(Succinyl)GEK_],collision cross section,[17],392.73 ± 1.4 Å²
same,collision cross section,[18],442.37 ± 2.9 Å²
SITHSTVGSKGEK [_SITHSTVGSK(Trimethyl (K))GEK_],collision cross section,[19],408.54 ± 2.1 Å²
same,collision cross section,[20],473.59 ± 1.5 Å²
